pKd: −log10 of the molar value.

These results are taken from article PMC7587188.

The target in the experiment is B-Glucosidase. As to the kind of experiment: ITC; 1 mM BSA in the syringe, 10 uL injections into 66 uM B-GLU in the cell; 25 °C; PBS pH 6; VP-ITC; fitted with AFFINImeter, independent sites approach (GoF = 50.81%).

For the substance “Bovine Serum Albumin (from UniProt P02769 25-607) (natural protein)”, the Ka came to 530000 M⁻¹, the pKd is 5.72, the dH was -0.26 kcal/mol and the stoichiometry N is 1.23.
